Results on one molecule are retold here after patent US20220348635A1, “COMPOSITIONS AND METHODS FOR NEUROLOGICAL DISEASES” (Coda Biotherapeutics, Inc., priority 2019, published 2022).

Common to all, as to format: cell-based
Assay [1] in a line: YFP quench plate reader assay, response to ABT-126. The conditions noted are these: LX293T YFP reporter cells. In outline: (§1)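 Double mutants of engineered chimeric receptor SEQ ID NO:33 are expressed transiently in YFP-reporter LX293T cells and challenged with ligand doses in iodide buffer. Quench is measured on a plate reader over 2 min, giving percent quench […].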

Assay [2] in a line: YFP quench plate reader assay, response to AZD-0328. The conditions noted are these: LX293T YFP reporter cells. A digest of the protocol: as §1
Assay [3] in a line: YFP quench plate reader assay, response to TC-6987. The conditions noted are these: LX293T YFP reporter cells. A digest of the protocol:
as §1

The nature of assay [4]: Manual patch clamp, HEK cell line, Facinicline/RG3487. The following applies: HEK293 cells and cultured rat DRG sensory neurons. The procedure: (§2) FIG. 2A-FIG. 2B show the concentration-response curves of CR-11 (Chemogenic receptor-11, an engineered receptor comprising an amino acid sequence having the amino acid substitutions of Y115D and L131Q in SEQ ID NO: 33) expressed in HEK 293 cells to acetylcholine as well as to non-native ligands RG-3487 (SA-2, Synthetic Agonist-2). The responses were evaluated using manual patch clamp electrophysiology. Currents were normalized to unity for the maximal response. The continuous line through the data points is the best fit obtained with the Hill equation, and EC50s for each ligand are estimated from the concentration-response curves.
(§3) Using whole cell manual patch clamp electrophysiology in HEK293 cells and rat DRG neurons, the EC50 of the various engineered receptors disclosed herein to Ach and non-native ligands was measured. The rheobase shift was also measured in rat DRG neurons, which reflects the efficacy of the receptors. To calculate the rheobase, first, the amount of current that can produce an action potential was determined. Then the ligand was added, followed by a step wise increase in the current injected up to 700 pA. […] The EC50 was calculated using the Hill equation with peak current measurements from escalating doses of ligand.
Background: The patch-clamp technique gives a direct electrical read-out from membranes.

The nature of assay [5]: Manual patch clamp, HEK cell line, acetylcholine. The following applies: HEK293 cells and cultured rat DRG sensory neurons. The method, then:
as §2, §3

Assay [6] in a line: Manual patch clamp, rat DRG neurons, Facinicline/RG3487. The conditions noted are these: cultured adult rat DRG neurons expressing the receptor; not observed in non-transduced cells. The procedure: (§4) Using whole cell manual patch clamp electrophysiology in HEK293 cells and rat DRG neurons, the EC50 of the various engineered receptors disclosed herein to Ach and non-native ligands was measured. The rheobase shift was also measured in rat DRG neurons, which reflects the efficacy of the receptors. To calculate the rheobase, first, the amount of current that can produce an action potential was determined. Then the ligand was added, followed by a step wise increase in the current injected up to 700 pA. The current injected after addition of the ligand was divided by, the original current injected to obtain an action potential, to calculate the rheobase. The EC50 was calculated using the Hill equation with peak current measurements from escalating doses of ligand.

The nature of assay [7]: Evoked action potentials in transduced rat DRG neurons, RG-3487. The following applies: RG-3487 (SA-2) at 3 μM. The procedure:
as §4
Acetylcholine at 3.0 mM had no effect on evoked action potentials in transduced neurons (n=4) (FIG. 4B).

B1: Y115D, L131Q in SEQ ID NO: 33: CR-11 (Chemogenic receptor-11): SEQ ID NO: 33 with substitutions Y115D and L131Q (protein)
chain: MRCSPGGVWLALAASLLHVSLQGEFQRKLYKELVKNYNPLERPVANDSQPLTVYFSLSLLQIMDVDEKNQVLTTNIWLQMSWTDHYLQWNVSEYPGVKTVRFPDGQIWKPDILLDNSADERFDATFHTNVQVNSSGHCQYLPPGIFKSSCPMDLKNFPMDVQTCKLKFGSWSYGGWSLDLQMQEADISGYIPNGEWDLVGIPGKRSERFYECCKEPYPDVTFTVTMRRRMGYYLIQMYIPSLLIVILSWISFWINMDAAPARVGLGITTVLTMTTQSSGSRASLPKVSYVKAIDIWMAVCLLFVFSALLEYAAVNFVSRQHKELLRFRRKRRHHKSPMLNLFQEDEAGEGRFNFSAYGMGPACLQAKDGISVKGANNSNTTNPPPAPSKSPEEMRKLFIQRAKKIDKISRIGFPMAFLIFNMFYWIIYKIVRREDVHNQ
modifications: synthetic sequence of chimeric LGIC
As to B1, the “percent quench of YFP fluorescence, 50 nM abt” value in assay [1] (50 nM ABT-126) was −1.81%. Also, in assay [1] (100 nM ABT-126), the “percent quench of YFP fluorescence, 100 nM abt” value is recorded as −2.61%. Moreover, the “percent quench of YFP fluorescence, 300 nM abt” value in assay [1] (300 nM ABT-126) is −3.78%. Besides, the “percent quench of YFP fluorescence, 1 uM abt” value in assay [1] (1 uM ABT-126) is reported as −2.6%. Besides, in assay [2] (100 nM AZD-0328), the “percent quench of YFP fluorescence, 100 nM azd” value is 12.15%. The “percent quench of YFP fluorescence, 300 nM azd” value in assay [2] (300 nM AZD-0328) stood at 30.92%. Further, in assay [2] (30 uM AZD-0328), the “percent quench of YFP fluorescence, 30 uM azd” value was found to be 68.65%. Besides, the “percent quench of YFP fluorescence, 1 uM tc6” value in assay [3] (1 uM TC-6987) was 38.83%. The “percent quench of YFP fluorescence, 10 uM tc6” value in assay [3] (10 uM TC-6987) was 31.59%. For the same molecule, in assay [3] (500 uM TC-6987), the “percent quench of YFP fluorescence, 500 uM tc6” value is reported as 29.83%. The “sensitivity to RG-3487 compared to wildtype nAchRa7 receptor” value in assay [4] is “more sensitive”. In addition, the “sensitivity / potency to acetylcholine” value in assay [5] is “essentially insensitive”. In addition, the “chloride current on application of RG-3487 (SA-2)” value in assay [6] is reported as “generated chloride current in a dose dependent manner”. Further, the “effect on current injection evoked action potentials” value in assay [7] was “reversibly inhibits”. In addition, in assay [7] (n=7), the “increase in the current required to elicit action potentials” value is given as about 3 ×.
